Reference: patent US20260139046A1 (ATTOVIA THERAPEUTICS, published 2026)

T1: human IL31 (human, UniProt Q6EBC2 24-164, biotinylated in the SPR assay (site not stated))
T1 construct: Immunisation and selection used His-tagged or biotinylated human IL31; also called interleukin-31; hIL31
T1 sequence: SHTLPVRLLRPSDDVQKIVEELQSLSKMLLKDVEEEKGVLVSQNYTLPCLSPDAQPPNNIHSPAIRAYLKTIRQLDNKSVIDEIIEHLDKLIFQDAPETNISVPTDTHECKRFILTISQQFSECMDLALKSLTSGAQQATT


Legend:
human IL31 [1] = target: T1, human IL31; test: binding kinetics, large-scale material, baseline sample; method and target not restated (SPR on IL31 presumed)
human IL31 [2] = target: T1, human IL31; test: cell-based or functional assay
human IL31 [3] = target: T1, human IL31; test: SPR (Biacore T200, Biotin CAPture): biotinylated IL31 captured, co-binder Fc fusion as analyte
Protocol: (§1) Binding affinity was measured using Biotin CAPture Kit (Cytiva Life Sciences) and the BIACORE™ T200 SPR system (Cytiva Life Sciences). Initially, Biotin CAPture Reagent (Cytiva Life Sciences) was flowed to immobilize 3 nM biotinylated IL31 (ligand). 3 nM, 9 nM, and 27 nM anti-IL31 co-binders were flowed as analyte with 180 seconds association and running buffer was flowed with 3000 seconds dissociation. The sensor chip was regenerated by guanidine hydrochloride and sodium hydroxide.

human IL31 [4] = target: T1, human IL31; test: cell-based or functional assay; remark: listed apart in the source
human IL31 [5] = target: T1, human IL31; test: binding kinetics after 3x freeze/thaw; method and target not restated (SPR on IL31 presumed)
human IL31 [6] = target: T1, human IL31; test: SPR (Biacore T200, Biotin CAPture): biotinylated IL31 captured, co-binder Fc fusion as analyte; remark: listed apart in the source
Protocol: as §1

human IL31 [7] = target: T1, human IL31; test: KD of wild-type and humanized co-binders; method not restated (SPR as in Example 4 presumed)
human IL31 [8] = target: T1, human IL31; test: cell-based or functional assay; remark: listed apart in the source

Row | Binder | Kd (human IL31 [1]) | koff (human IL31 [1]) | kon (human IL31 [1]) | Activity (IC50, nM), pSTAT3 assay (P^3) (human IL31 [2]) | Kd (human IL31 [3]) | EC50 (pSTAT3) nM (human IL31 [4]) | Kd (human IL31 [5]) | koff (human IL31 [5]) | kon (human IL31 [5]) | Kd (human IL31 [6]) | Kd (human IL31 [7]) | Activity (IC50, nM); pSTAT3 assay per Table 4 (human IL31 [8])
1 | 1C10 co-binder + huIgG1Fc_YTE_C→S (Fc fusion, VHH1-linker-VHH2-Fc; also called 1C10 WT; 1C10Fc) EVQLVESGGGLVQAGGSLRLSCAASGGTFSSYTMGWFRQAPGKEREYVGGISSSGYVMYNSESMKGRFTISRENAKNMVYLQMNSLKPEDTAVYYCAAGTIGRPYDYWGQGTQVTVSSGGGSGGGGSGGGGSGGGGSGGGGSGGGGSGGGGSGMTGVKLEESGGGLVQPGGSLILSCAASGDISSIVAMGWYRQAPGKQRELVAAITSGGRTHYRDSVKGRFTISGNNDNSALYLHMNSLKPEDTAVYYCAADRGWTSVGEYDYWGKGTLVTVSSEPKSSDKTHTCPPCPAPELLGGPSVFLFPPKPKDTLYITREPEVTCVVVDVSHEDPEVKFNWYVDGVEVHNAKTKPREEQYNSTYRVVSVLTVLHQDWLNGKEYKCKVSNKALPAPIEKTISKAKGQPREPQVYTLPPSRDELTKNQVSLTCLVKGFYPSDIAVEWESNGQPENNYKTTPPVLDSDGSFFLYSKLTVDKSRWQQGNVFSCSVMHEALHNHYTQKSLSLSPGK | 1500 pM | 0.00033 s⁻¹ | 220000 M⁻¹ s⁻¹ | 8.5 nM | 58.7 pM | 6.57 nM | 3450 pM | 0.000675 s⁻¹ | 196000 M⁻¹ s⁻¹ | 58.7 pM | 12.6 pM | 8.5 nM
2 | 1D1 co-binder + huIgG1Fc_YTE_C→S (Fc fusion, VHH1-linker-VHH2-Fc; also called 1D1 WT; 1D1Fc) EVQLVESGGGLVQAGGSLRLSCAASGGTFSSYAMAWFRQAPGKEREYVAGISSSGYTLYKSDSMKGRFTISRENAKNMVYLQMNSLKPEDTAVYSCAAGIFGRPYEYWGQGTLVTVSSGGGSGGGGSGGGGSGGGGSGGGGSPSMGVKLEESGGGLVQAGGSLILSCAASGDIPSIVAMGWYRQAPGKQRELVAAITSGGRTHYRDSVKGRFTISGNNDNSALYLHMNSLKPEDTAVYYCAADMGLTAVGEYDYWGQGTQVTVSSEPKSSDKTHTCPPCPAPELLGGPSVFLFPPKPKDTLYITREPEVTCVVVDVSHEDPEVKFNWYVDGVEVHNAKTKPREEQYNSTYRVVSVLTVLHQDWLNGKEYKCKVSNKALPAPIEKTISKAKGQPREPQVYTLPPSRDELTKNQVSLTCLVKGFYPSDIAVEWESNGQPENNYKTTPPVLDSDGSFFLYSKLTVDKSRWQQGNVFSCSVMHEALHNHYTQKSLSLSPGK | 1940 pM | 0.000405 s⁻¹ | 209000 M⁻¹ s⁻¹ | 6.7 nM | 24 pM | 8.42 nM | 3220 pM | 0.000628 s⁻¹ | 195000 M⁻¹ s⁻¹ | 24 pM | 15.3 pM | 6.7 nM

The remaining binders from weak to strong by Kd (human IL31 [1]), led by results:

Row | Kd (human IL31 [1]) | koff (human IL31 [1]) | kon (human IL31 [1]) | Activity (IC50, nM), pSTAT3 assay (P^3) (human IL31 [2]) | Kd (human IL31 [3]) | EC50 (pSTAT3) nM (human IL31 [4]) | Kd (human IL31 [5]) | koff (human IL31 [5]) | kon (human IL31 [5]) | Kd (human IL31 [6]) | Kd (human IL31 [7]) | Activity (IC50, nM); pSTAT3 assay per Table 4 (human IL31 [8]) | Binder
3 | 18600 pM | 0.00423 s⁻¹ | 228000 M⁻¹ s⁻¹ | 8.4 nM | 14.8 pM | 6.65 nM | 19400 pM | 0.00435 s⁻¹ | 224000 M⁻¹ s⁻¹ | 14.8 pM | 10.4 pM | 8.4 nM | 21H7 co-binder + huIgG1Fc_YTE_C→S (Fc fusion, VHH1-linker-VHH2-Fc; also called 21H7 WT; 21H7Fc) EVQLVESGGGLVQAGGSLRLSCAASGGTFSSYTMGWFRQAPGKEREYVGGISSSGYVMYNSESMKGRFTISRENAKNMVYLQMNSLKPEDTAVYYCAAGTIGRPYDYWGQGTQVTVSSGGGSGGGGSGGGGSGGGGSGGGGSGGGGSGGGGSEGVGLVESGGGSVQAGDSLRLSCAASGRTFSTYIIGWFRQAPGKEREFVASISWGGRGTYYADSVKDRFTISRDNPKNMVYLQMNSLKPEDTAVYYCAAGDLPGGRRALDYDYWGQGTLVTVSSEPKSSDKTHTCPPCPAPELLGGPSVFLFPPKPKDTLYITREPEVTCVVVDVSHEDPEVKFNWYVDGVEVHNAKTKPREEQYNSTYRVVSVLTVLHQDWLNGKEYKCKVSNKALPAPIEKTISKAKGQPREPQVYTLPPSRDELTKNQVSLTCLVKGFYPSDIAVEWESNGQPENNYKTTPPVLDSDGSFFLYSKLTVDKSRWQQGNVFSCSVMHEALHNHYTQKSLSLSPGK
4 | 136 pM | 0.000138 s⁻¹ | 1.01e+06 M⁻¹ s⁻¹ | 6.1 nM | 3.2 pM | – | 619 pM | 0.000551 s⁻¹ | 890000 M⁻¹ s⁻¹ | 3.2 pM | – | 6.1 nM | 1H5 co-binder + huIgG1Fc_YTE_C→S (Fc fusion, VHH1-linker-VHH2-Fc) EVQLVESGGGSVQAGGSLRLSCAASGGTFSSYAMAWFRQAPGKEREYVAGISSSGYTLYKSDSMKGRFTISRENAKNMVYLQMNSLKPEDTAVYSCAAGIFGRPYEYWGQGTQVTVSSGGGGSGGGGSGGGGSRSVGVQLVESGGGLVQAGGSLRLSCAASGSISSIHAMGWYRQAPGKQRELIAAITSGGRRHYRDSVKGRFTISGDNAKTNLYLQMNSLKPEDTAVYYCAADTGRVAVGEYDYWGQGTLVTVSSEPKSSDKTHTCPPCPAPELLGGPSVFLFPPKPKDTLYITREPEVTCVVVDVSHEDPEVKFNWYVDGVEVHNAKTKPREEQYNSTYRVVSVLTVLHQDWLNGKEYKCKVSNKALPAPIEKTISKAKGQPREPQVYTLPPSRDELTKNQVSLTCLVKGFYPSDIAVEWESNGQPENNYKTTPPVLDSDGSFFLYSKLTVDKSRWQQGNVFSCSVMHEALHNHYTQKSLSLSPGK
